Here are results for 1 molecule from paper PMC11662940 (Nucleic Acids Research, 2024).

The target of this test is T1, ScUba4 (Saccharomyces cerevisiae Uba4) (S. cerevisiae, UniProt P38820 1-440).
T1 sequence: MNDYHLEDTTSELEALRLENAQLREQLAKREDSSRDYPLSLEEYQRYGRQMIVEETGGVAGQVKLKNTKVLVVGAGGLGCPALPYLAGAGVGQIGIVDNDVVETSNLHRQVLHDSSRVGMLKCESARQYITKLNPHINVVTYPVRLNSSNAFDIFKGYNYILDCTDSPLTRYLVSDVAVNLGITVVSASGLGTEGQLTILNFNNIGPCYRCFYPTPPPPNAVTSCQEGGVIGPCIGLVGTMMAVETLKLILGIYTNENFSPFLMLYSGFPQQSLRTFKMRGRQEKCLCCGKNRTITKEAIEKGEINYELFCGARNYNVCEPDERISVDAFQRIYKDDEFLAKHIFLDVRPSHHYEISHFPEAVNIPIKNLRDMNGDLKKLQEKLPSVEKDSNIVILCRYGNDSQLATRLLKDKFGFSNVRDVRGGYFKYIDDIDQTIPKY
Briefly: SEC.

B1: Thiocarboxylated ScUrm1 (natural protein)
chain: MVNVKVEFLGGLDAIFGKQRVHKIKMDKEDPVTVGDLIDHIVSTMINNPNDVSIFIEDDSIRPGIITLINDTDWELEGEKDYILEDGDIISFTSTLHGG
modifications: thiocarboxylate at the C-terminus
For the molecule B1, the binding result is on record as “binds”.
